Source: US20260070960A1 (US Dept. of Health and Human Services, published 2026)

How the values were obtained:
[1] = target: pMHC-E6, HLA-A*02:01-[…] monomer (refolded, soluble) (human; human papillomavirus (HPV))
[2] = target: T1, E7 peptide (…) in complex with HLA-A*02:01 on T2 cells (human; human papillomavirus (HPV)); assay: FACS on 293E7 cells, APC-anti-Flag; nanobody concentration not given
T1 construct: whole, on cells

| Binder | Kd [1] [µM] | binding result [2] |
| --- | --- | --- |
| single-domain antibody F5 (camel VHH nanobody) (VHH, also called VHH F5; nanobody F5) VHH: EVQLVESGGGSVQAGGSLRLSCAASGFTFSNNRMGWVRQAPGKGLEWVSDINSSGGVTEYADSVKGRFTISRDNAKNTLYLQLNSLKIEDTAIYYCVYYSYLMRLRPGQGTQVTVSS | 1.5 | no binding |
| single-domain antibody G9 (camel VHH nanobody) (VHH, also called nanobody G9) VHH: EVQLVESGGGLVQPGGSLRLSCVASGFTFSNNRMGWVRQAPGKGLEWVSDINSSGGVTEYADSVKGRFTISRDNAKNTLYLQLNSLKIEDTAIYYCVYYSYLMRLRPGQGTQVTVSS | – | no binding |
